Values of other authors in paper PMC7925366.
Several values for one entry are separate records, joined by “and”; a condition that tells them apart may be missing. Equal values may be shown once. Read-outs that look alike come from different tables or passages of the source.

What was measured:
[1] = target: vimentin coils 1A and 1B (Homo sapiens) (UniProt P08670); assay: MST
[2] = target: vimentin coils 1A and 1B (Homo sapiens) (UniProt P08670)

Chain of UniProt P08670 (P08670 96-245): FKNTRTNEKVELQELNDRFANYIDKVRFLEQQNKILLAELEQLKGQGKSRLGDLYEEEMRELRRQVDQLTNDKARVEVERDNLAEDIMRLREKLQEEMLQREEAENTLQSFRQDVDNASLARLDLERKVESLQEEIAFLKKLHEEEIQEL

Substance | Kd [1] | Kd [2] [µM]
periplakin linker domain (from UniProt O60437) | 31 µM and 70 µM | –
envoplakin PRD (from UniProt Q92817) | – | 19
